Assay results: publication PMC3114773

Target: β-arrestin2 (β-arr2) (UniProt Q91YI4)
Test: co-IP, anti-Myc IP, anti-GFP blot
Conditions: reference: wild type; sites S592,S594,T597,S599,S615,S619,S620,S642,S666,S774,S777,S791

Smo (mSmo, mammalian Smoothened) (from UniProt P56726) SA mutant (taken as SA0–5)
binding against the reference: weaker
